Reference: patent publication US6797812B2, “Caspase-14, an apoptotic protease, nucleic acids encoding and methods of use” (Thomas Jefferson University, priority 1997, dated 2004)

Tests used:
mouse procaspase-14 = target: T1, mouse procaspase-14 (Mus musculus, UniProt O89094); test: Processing of 35S labeled procaspase-14 by Granzyme B and purified recombinant caspases; assay type: biochemical; conditions: Granzyme B 14 ng/μl or recombinant caspases 20 ng/μl, ICE buffer, 37° C., 1 h, FIG. 5B
T1 construct: made in house
T1 sequence (O89094 1-257): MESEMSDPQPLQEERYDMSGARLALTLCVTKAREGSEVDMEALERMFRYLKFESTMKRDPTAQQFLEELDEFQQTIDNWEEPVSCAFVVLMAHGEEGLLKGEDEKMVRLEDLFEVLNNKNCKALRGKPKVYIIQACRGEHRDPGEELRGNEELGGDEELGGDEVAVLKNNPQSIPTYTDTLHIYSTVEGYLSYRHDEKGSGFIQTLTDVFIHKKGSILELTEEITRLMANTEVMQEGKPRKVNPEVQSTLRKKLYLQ
Protocol: Upon expression in bacteria, all procaspases are known to autoprocess to various degrees to generate the mature caspase which is composed of the large and small subunits. The observed auto-activation in bacterial overexpression systems is probably mediated by overexpression-induced oligomerization. […] To test this possibility procaspase-14 was incubated with Granzyme B which is known to process several caspase proenzymes. In addition procaspase-14 was incubated with different purified recombinant caspases.
Processing of mouse procaspase-14 by Granzyme B and purified recombinant caspases was carried out under the following conditions: ^35S labeled procaspase-14 was incubated with purified Granzyme B (14 ng/μl) or the indicated purified recombinant caspases (20 ng/μl) in ICE buffer (25 mM Hepes, 1 mM EDTA, 5 mM DTT, 0.1% CHAPS, pH 7.5) at 37° C. for 1 h. The reactions were stopped by addition of an SDS-sample buffer and then the products were analyzed by SDS-PAGE and autoradiography.

[1] = Autoprocessing of procaspases overexpressed in bacteria (SDS-PAGE, Coomassie); assay type: biochemical; conditions: expressed in Escherichia coli, Talon-affinity purified, FIG. 5A
MCF-7 cells = test: Overexpression of procaspases in MCF-7 cells, morphological signs of apoptosis; assay type: cell-based; conditions: transient transfection, X-gal staining 30 h after transfection, FIG. 4
Text: On the other hand overexpression of the large prodomain initiator procaspases such as procaspase-8 can induce apoptosis, due to their ability to undergo prodomain-mediated oligomerization. To test the ability of procaspase-14 to induce apoptosis in transfected cells, MCF-7 cells were transiently transfected with procaspase-14 in a PRSC lac-Z expression construct under the CMV promoter. Cells were also transfected with an empty vector or constructs encoding procaspase-3, -6, -8, or -10 as controls. The cells were stained with X-gal 30 h after transfection and examined for morphological signs of apoptosis The percentage of round blue apoptotic cells (mean±SD) were represented as a function of total blue cells under each condition (n≧3). SD was less than 5%.

[2] = system: S100 extracts from human embryonic kidney 293 cells; test: Cytochrome c dependent processing of procaspases in S100 extracts; assay type: biochemical; conditions: cytochrome c 50 ng/μl, dATP 1 mM, 30° C., 1 h, FIG. 6
Protocol: To determine if caspase-14 was activated by a way of Apaf-1 and caspase-9, cytochrome c dependent activation was tested. ^35S labeled procaspase-3 (FIG. 6, lanes 1 & 2), procaspase-7 (FIG. 6, lanes 3 & 4), or procaspase-14 (FIG. 6, lanes 5 & 6) were incubated with S100 extracts from human embryonic kidney 293 cells in the absence (−) or presence (+) of cytochrome c (50 ng/μl) and dATP (1 mM) in buffer A (20 mM Hepes, 10 mM KCl, 1.5 mM MgCl2, 1 mM EDTA, 1 mM EGTA, 1 mM DTT, 0.1 mM PMSF, pH 7.5) at 30° C. for 1 h. The reaction products were then analyzed by SDS-PAGE and autoradiography.

procaspase-14 = test: Processing of T7-tagged procaspase-14 in MCF-7-FAS cells after anti-Fas antibody or TRAIL; assay type: cell-based; conditions: treated 36 h after transfection for 3 h, FIG. 5C
Protocol: (§1) Since caspase-8 and -10 are initiator caspases that are activated by oligomerization of the death receptors (i.e., Fas, TRAIL-R) by their ligands or agonist antibodies, the possibility that procaspase-14 is processed in vivo after induction of apoptosis by anti-Fas antibody or the cytotoxic ligand TRAIL was tested. A mammalian expression construct encoding N-terminal T7-tagged procaspase-14 was transfected into MCF-7-FAS cells. The cells were treated 36 h after transfection with agonist anti-Fas antibody or TRAIL for 3 h. Cells were harvested and lysed by addition of SDS-sample buffer. The cellular proteins were analyzed by SDS-PAGE and then immunoblotted with an anti-T7 HRP-conjugated monoclonal antibody (FIG. 5C, left panel) to detect procaspase-14. The same samples were also immunoblotted with a polyclonal antibody (anti-Mch3α) that preferentially detects the proform of caspase-7 (FIG. 5C, middle panel), or a mixture of the anti-Mch3α antibody and CM-1 antibody that preferentially detects the processes fragments of caspase-7 (FIG. 5C, right panel) to detect the endogenous caspase-7. Pro indicates the proenzyme, LS indicates the large subunit and SS indicates the small subunit. […] The cleavage products of procaspase-14 were not clearly detectable probably due to loss of the epitope tag after processing of the small prodomain of procaspase-14 at Asp7 or Asp 17. […]

procaspase-7 = test: Processing of endogenous procaspase-7 in MCF-7-FAS cells after anti-Fas antibody or TRAIL; assay type: cell-based; conditions: treated for 3 h, FIG. 5C
Protocol: as §1

Row | Molecule | processing of procaspase-14 (mouse procaspase-14) | processing of the proenzyme on overexpression in bacteria [1] | induction of apoptosis (round blue apoptotic cells as a function of total blue cells) (MCF-7 cells) | other results
1 | Granzyme B: purified protease known to process several caspase proenzymes | significant amount of processing | – | – | –
2 | procaspase-3: small prodomain executioner procaspase used as control (protein, UniProt P42574 1-277, looked up, pro-form, small prodomain executioner procaspase used as control) pro-form: MENTENSVDSKSIKNLEPKIIHGSESMDSGISLDNSYKMDYPEMGLCIIINNKNFHKSTGMTSRSGTDVDAANLRETFRNLKYEVRNKNDLTREEIVELMRDVSKEDHSKRSSFVCVLLSHGEEGIIFGTNGPVDLKKITNFFRGDRCRSLTGKPKLFIIQACRGTELDCGIETDSGVDDDMACHKIPVEADFLYAYSTAPGYYSWRNSKDGSWFIQSLCAMLKQYADKLEFMHILTRVNRKVATEFESFSFDATFHAKKQIPCIVSMLTKELYFYH | – | completely processes | unable to induce any significant amount of apoptosis | –
3 | procaspase-14: proenzyme of caspase-14, a cell death specific cysteine protease of the caspase family (mouse SEQ ID NO:2) (protein) KPDMESEMSDPQPLQEERYDMSGARLALTLCVTKAREGSEVDMEALERMFRYLKFESTMKRDPTAQQFLEELDEFQQTIDNWEEPVSCAFVVLMAHGEEGLLKGEDEKMVRLEDLFEVLNNKNCKALRGKPKVYIIQACRGEHRDPGEELRGNEELGGDEELGGDEVAVLKNNPQSIPTYTDTLHIYSTVEGYLSYRHDEKGSGFIQTLTDVFIHKKGSILELTEEITRLMANTEVMQEGKPRKVNPEVQSTLRKKLYLQ | – | no significant processing | unable to induce any significant amount of apoptosis | cleavage/activation in S-100 extracts activated by cytochrome c and dATP [2]: no cleavage/activation
4 | caspase-14: purified recombinant caspase-14 material containing small amount of active caspase-14 (protein) KPDMESEMSDPQPLQEERYDMSGARLALTLCVTKAREGSEVDMEALERMFRYLKFESTMKRDPTAQQFLEELDEFQQTIDNWEEPVSCAFVVLMAHGEEGLLKGEDEKMVRLEDLFEVLNNKNCKALRGKPKVYIIQACRGEHRDPGEELRGNEELGGDEELGGDEVAVLKNNPQSIPTYTDTLHIYSTVEGYLSYRHDEKGSGFIQTLTDVFIHKKGSILELTEEITRLMANTEVMQEGKPRKVNPEVQSTLRKKLYLQ | Some processing | – | – | –
5 | TRAIL: cytotoxic ligand TRAIL (protein, UniProt P50591 1-281, looked up) Tumor necrosis factor ligand …: MAMMEVQGGPSLGQTCVLIVIFTVLLQSLCVAVTYVYFTNELKQMQDKYSKSGIACFLKEDDSYWDPNDEESMNSPCWQVKWQLRQLVRKMILRTSEETISTVQEKQQNISPLVRERGPQRVAAHITGTRGRSNTLSSPNSKNEKALGRKINSWESSRSGHSFLSNLHLRNGELVIHEKGFYYIYSQTYFRFQEEIKENTKNDKQMVQYIYKYTSYPDPILLMKSARNSCWSKDAEYGLYSIYQGGIFELKENDRIFVSVTNEHLIDMDHEASFFGAFLVG | – | – | – | processing of procaspase-14 (decreased intensity of proenzyme band) (procaspase-14): able to induce processing; processing of procaspase-7 (decreased intensity of proenzyme band) (procaspase-7): able to induce processing
